Assay results as given in US20180371090A1.
Positions count from the first letter of the chain named. Blank lines part the entries; values can stand above or below the binder they belong to.

Assays:
[1] = target: human CD3 on Jurkat cells (human) (UniProt P07766); experiment: flow cytometry on Jurkat cells, FITC anti-human IgG secondary
[2] = target: FcγRI and FcγRIIA on U937 cells; experiment: flow cytometry on U937 cells (FcγRI and FcγRIIA), FITC goat anti-human Fab secondary, MFI
[3] = target: His-tagged human FcγRIIB (human) (UniProt P31994); experiment: SPR steady-state, His-captured receptor, 25 C
[4] = target: His-tagged human FcγRIIA (R131) (human) (UniProt P12318); experiment: SPR steady-state, His-captured receptor, 25 C
[5] = target: His-tagged cynomolgus FcγRIIB (cynomolgus); experiment: SPR steady-state, His-captured receptor, 25 C
[6] = target: His-tagged cynomolgus FcγRIIIA (cynomolgus) (UniProt Q8SPW2); experiment: SPR steady-state, His-captured receptor, 25 C
[7] = target: His-tagged human FcγRIIA (H131) (human) (UniProt P12318); experiment: SPR steady-state, His-captured receptor, 25 C
[8] = target: His-tagged cynomolgus FcγRIIA (cynomolgus); experiment: SPR steady-state, His-captured receptor, 25 C

His-tagged human FcγRIIA (H131) (human), sequence (P12318 36-218 limits assumed): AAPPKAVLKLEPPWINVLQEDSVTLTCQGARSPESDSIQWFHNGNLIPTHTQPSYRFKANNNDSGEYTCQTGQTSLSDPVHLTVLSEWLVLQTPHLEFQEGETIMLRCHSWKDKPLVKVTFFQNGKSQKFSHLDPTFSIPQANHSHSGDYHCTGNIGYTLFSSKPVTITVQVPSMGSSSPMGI
His-tagged human FcγRIIA (R131) (human), sequence (P12318 36-218 H167R limits assumed): as the sequence (P12318 36-218 limits assumed) above, with H132R counted along it
His-tagged cynomolgus FcγRIIIA (cynomolgus), sequence (Q8SPW2 17-208 limits assumed): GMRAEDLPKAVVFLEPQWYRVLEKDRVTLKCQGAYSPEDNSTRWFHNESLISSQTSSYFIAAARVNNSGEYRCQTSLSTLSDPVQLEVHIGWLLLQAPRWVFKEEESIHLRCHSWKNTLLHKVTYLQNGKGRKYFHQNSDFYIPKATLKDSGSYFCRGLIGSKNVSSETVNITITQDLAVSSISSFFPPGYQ
His-tagged human FcγRIIB (human), sequence (P31994 46-217 limits assumed): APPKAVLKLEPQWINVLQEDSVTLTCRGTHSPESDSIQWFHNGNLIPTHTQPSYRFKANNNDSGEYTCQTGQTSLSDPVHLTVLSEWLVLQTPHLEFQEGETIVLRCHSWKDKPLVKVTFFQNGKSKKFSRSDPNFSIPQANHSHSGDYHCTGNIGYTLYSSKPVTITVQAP

- Geom. Mean:FITC-A [1]: 1390
- EC50 [2]: 0.0335 µM
B1: Antibody 1, sIgG4-anti-CD3_L2K (antibody, part only; not given: L2K light chain, part only)
heavy: DVQLVQSGAEVKKPGASVKVSCKASGYTFTRYTMHWVRQAPGQGLEWIGYINPSRGYTNYADSVKGRFTITTDKSTSTAYMELSSLRSEDTATYYCARYYDDHYCLDYWGQGTTVTVSSASTKGPSVFPLAPCSRSTSESTAALGCLVKDYFPEPVTVSWNSGALTSGVHTFPAVLQSSGLYSLSSVVTVPSSSLGTKTYTCNVDHKPSNTKVDKRVESKYGPPCPPCPAPPVAGPSVFLFPPKPKDTLMISRTPEVTCVVVDVSQEDPEVQFNWYVDGVEVHNAKTKPREEQFNSTYRVVSVLTVLHQDWLNGKEYKCKVSNKGLPSSIEKTISKAKGQPREPQVYTLPPSQEEMTKNQVSLTCLVKGFYPSDIAVEWESNGQPENNYKTTPPVLDSDGSFFLYSRLTVDKSRWQEGNVFSCSVMHEALHNHYTQKSLSLSLGK

- Kd [3]: 123 µM
- Kd [4]: 19.3 µM
- Kd [5]: 13.9 µM
- Kd [6]: 66.3 µM
- Kd [7]: 12 µM
- Kd [8]: 23.1 µM
B2: Antibody 4, anti-CD3 x anti-CD20 bispecific antibody with chimeric IgG4 constant regions (bispecific antibody, part only; not given: variable domains of both arms, not shown: another chain or arm of the molecule)
constant 1: ASTKGPSVFPLAPCSRSTSESTAALGCLVKDYFPEPVTVSWNSGALTSGVHTFPAVLQSSGLYSLSSVVTVPSSSLGTKTYTCNVDHKPSNTKVDKRVESKYGPPCPPCPAPPVAGPSVFLFPPKPKDTLMISRTPEVTCVVVDVSQEDPEVQFNWYVDGVEVHNAKTKPREEQFNSTYRVVSVLTVLHQDWLNGKEYKCKVSNKGLPSSIEKTISKAKGQPREPQVYTLPPSQEEMTKNQVSLTCLVKGFYPSDIAVEWESNGQPENNYKTTPPVLDSDGSFFLYSRLTVDKSRWQEGNVFSCSVMHEALHNHYTQKSLSLSLGK
constant 2: B2 constant 1 with H314R, Y315F
